Laboratory results reported in article PMC8908386.

Target: FLAG-MTA1^C (UniProt Q13330)
Test: affinity purification with mass spectrometry

Sequence of UniProt Q13330 (Q13330 449-715): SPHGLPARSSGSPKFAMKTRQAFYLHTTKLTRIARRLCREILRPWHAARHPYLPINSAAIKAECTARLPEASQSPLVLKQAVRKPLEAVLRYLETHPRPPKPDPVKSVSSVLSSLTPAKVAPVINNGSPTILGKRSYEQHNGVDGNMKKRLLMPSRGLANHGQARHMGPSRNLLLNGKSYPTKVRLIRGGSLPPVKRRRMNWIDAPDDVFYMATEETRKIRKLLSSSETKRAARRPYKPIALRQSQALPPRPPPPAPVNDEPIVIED

HA-RBBP4 (from UniProt Q09028 1-425) (natural protein)
stoichiometry N (RBBP per MTA^C): 2.5
